What follows are binders tested against T1, TrfA wt (G254D/S267L, 33 kDa) (plasmid RK2, UniProt P07676 98-382, G254D;S267L) (assay: crosslinking-MS).
T1 sequence: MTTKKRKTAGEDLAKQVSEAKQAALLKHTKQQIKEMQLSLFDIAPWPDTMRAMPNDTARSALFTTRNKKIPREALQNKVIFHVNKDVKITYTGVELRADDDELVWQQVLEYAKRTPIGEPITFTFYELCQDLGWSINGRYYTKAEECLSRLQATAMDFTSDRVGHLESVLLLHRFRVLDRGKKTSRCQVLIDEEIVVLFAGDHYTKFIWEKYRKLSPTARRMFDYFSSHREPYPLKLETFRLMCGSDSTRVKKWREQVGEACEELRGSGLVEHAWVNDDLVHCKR

Binder | binding result
37T (dsDNA, C2dT at T15 of bottom strand) DNA 1: AGTGATGACAGATGAGGGGCGC DNA 2: GCGCCCCTCATCTGTCATCACT | binds
40T (dsDNA, C2dT at T18 of bottom strand) DNA 1: AGTGATGACAGATGAGGGGCGC DNA 2: GCGCCCCTCATCTGTCATCACT | binds
3T (dsDNA, C2dT at T3 of top strand) DNA 1: AGTGATGACAGATGAGGGGCGC DNA 2: GCGCCCCTCATCTGTCATCACT | binds

These binders were tested against T1, TrfA wt (G254D/S267L, 33 kDa) (assay: UV crosslinking).

Binder | binding result
53T (dsDNA, 5-Br-dU at T53 of top strand) DNA 1: CCTGCGGTATTGACACTTGAGGGGCGCGACTACTGACAGATGAGGGGCGCGATCCTTGACACTTGAGGGGCAGAGTGATGACAGATGAGGGGCGCACCTATTGACATTTGAGGGGCTGTCCACAGGCAG DNA 2: CTGCCTGTGGACAGCCCCTCAAATGTCAATAGGTGCGCCCCTCATCTGTCATCACTCTGCCCCTCAAGTGTCAAGGATCGCGCCCCTCATCTGTCAGTAGTCGCGCCCCTCAAGTGTCAATACCGCAGG | binds
69B (dsDNA, 5-Br-dU in bottom strand: CTCAAG[BrdU]GTCAAGG) DNA 1: CCTGCGGTATTGACACTTGAGGGGCGCGACTACTGACAGATGAGGGGCGCGATCCTTGACACTTGAGGGGCAGAGTGATGACAGATGAGGGGCGCACCTATTGACATTTGAGGGGCTGTCCACAGGCAG DNA 2: CTGCCTGTGGACAGCCCCTCAAATGTCAATAGGTGCGCCCCTCATCTGTCATCACTCTGCCCCTCAAGTGTCAAGGATCGCGCCCCTCATCTGTCAGTAGTCGCGCCCCTCAAGTGTCAATACCGCAGG | binds
56T (dsDNA, 5-Br-dU at T56 of top strand) DNA 1: CCTGCGGTATTGACACTTGAGGGGCGCGACTACTGACAGATGAGGGGCGCGATCCTTGACACTTGAGGGGCAGAGTGATGACAGATGAGGGGCGCACCTATTGACATTTGAGGGGCTGTCCACAGGCAG DNA 2: CTGCCTGTGGACAGCCCCTCAAATGTCAATAGGTGCGCCCCTCATCTGTCATCACTCTGCCCCTCAAGTGTCAAGGATCGCGCCCCTCATCTGTCAGTAGTCGCGCCCCTCAAGTGTCAATACCGCAGG | binds
71B (dsDNA, 5-Br-dU in bottom strand: CAAGTG[BrdU]CAAGG) DNA 1: CCTGCGGTATTGACACTTGAGGGGCGCGACTACTGACAGATGAGGGGCGCGATCCTTGACACTTGAGGGGCAGAGTGATGACAGATGAGGGGCGCACCTATTGACATTTGAGGGGCTGTCCACAGGCAG DNA 2: CTGCCTGTGGACAGCCCCTCAAATGTCAATAGGTGCGCCCCTCATCTGTCATCACTCTGCCCCTCAAGTGTCAAGGATCGCGCCCCTCATCTGTCAGTAGTCGCGCCCCTCAAGTGTCAATACCGCAGG | binds
57T (dsDNA, 5-Br-dU at T57 of top strand) DNA 1: CCTGCGGTATTGACACTTGAGGGGCGCGACTACTGACAGATGAGGGGCGCGATCCTTGACACTTGAGGGGCAGAGTGATGACAGATGAGGGGCGCACCTATTGACATTTGAGGGGCTGTCCACAGGCAG DNA 2: CTGCCTGTGGACAGCCCCTCAAATGTCAATAGGTGCGCCCCTCATCTGTCATCACTCTGCCCCTCAAGTGTCAAGGATCGCGCCCCTCATCTGTCAGTAGTCGCGCCCCTCAAGTGTCAATACCGCAGG | binds
58B (dsDNA, 5-Br-dU in bottom strand: CACTC[BrdU]GCCCC) DNA 1: CCTGCGGTATTGACACTTGAGGGGCGCGACTACTGACAGATGAGGGGCGCGATCCTTGACACTTGAGGGGCAGAGTGATGACAGATGAGGGGCGCACCTATTGACATTTGAGGGGCTGTCCACAGGCAG DNA 2: CTGCCTGTGGACAGCCCCTCAAATGTCAATAGGTGCGCCCCTCATCTGTCATCACTCTGCCCCTCAAGTGTCAAGGATCGCGCCCCTCATCTGTCAGTAGTCGCGCCCCTCAAGTGTCAATACCGCAGG | binds

Reference: article PMC8034659
